From PMC5414047

Assays:
[1] = molecular target: TβRII (TGF-β type II receptor) (UniProt P37173); assay: Flag-FAF1 co-IP, immunoblot; conditions: reference: wild type; sites S582
[2] = molecular target: VCP (valosin-containing protein) (UniProt P55072); assay: Flag-FAF1 co-IP, immunoblot; conditions: reference: wild type; sites S582

## FAF1 (FAS-associated factor 1) (from UniProt Q9UNN5) S582A
[1]
  binding against the reference: stronger
[2]
  binding against the reference: stronger
